These are literature values, as cited in PMC6800417.

As usually defined, the Kd is the concentration at which binding is half-saturated.

The target of this data set is EGFR (Homo sapiens) (UniProt P00533).

With 111In-DTPA-hEGF (from UniProt P01133), the Kd is 1.3 nM.
